The values that follow come from article PMC8750329.

Assay [1] deals with P. clarkii crustacyanin A2 (PcCRA2) (Procambarus clarkii). Briefly: SEC + other: SDS-PAGE; fraction F1, 1 mg/mL, TSK-gel G3000SWxl, 20 mM sodium phosphate pH 7.0, 0.7 mL/min, calibrated with a protein standard mix; native mass about 170 kDa against a single 21 kDa band on SDS-PAGE.
The target is the same in assay [2]. Put plainly: SEC + other: SDS-PAGE; fraction F2, 1 mg/mL, TSK-gel G3000SWxl, 20 mM sodium phosphate pH 7.0, 0.7 mL/min, calibrated with a protein standard mix; native mass about 43 kDa against a single 21 kDa band on SDS-PAGE.

Turning to “P. clarkii crustacyanin A2 (PcCRA2) (natural protein)”, the stoichiometry N (as a rule, a count of units in the complex or per binding partner) was found to be 8 in assay [1] and 2 in assay [2].
